The series concerns guinea pig (豚鼠). The experiment in a line: Allergy (sensitisation) test (过敏性试验). Format: in vivo. To be noted: 0.5 ml x 3 every other day; challenge i.v. 1 ml on day 14 and day 21; observed 30 minutes.

This is an account of results in patent publication CN103211774A, “一种注射用甲磺酸加贝酯组合物及其制备方法” (CHENGDU EASTON PHARMACEUTICAL Co Ltd, priority 2013, dated 2013).

B1: 阳性对照组: 5% ovalbumin positive control group (protein, UniProt P01012 2-386, looked up)
Ovalbumin: GSIGAASMEFCFDVFKELKVHHANENIFYCPIAIMSALAMVYLGAKDSTRTQINKVVRFDKLPGFGDSIEAQCGTSVNVHSSLRDILNQITKPNDVYSFSLASRLYAEERYPILPEYLQCVKELYRGGLEPINFQTAADQARELINSWVESQTNGIIRNVLQPSSVDSQTAMVLVNAIVFKGLWEKAFKDEDTQAMPFRVTEQESKPVQMMYQIGLFRVASMASEKMKILELPFASGTMSMLVLLPDEVSGLEQLESIINFEKLTEWTSSNVMEERKIKVYLPRMKMEEKYNLTSVLMAMGITDVFSSSANLSGISSAESLKISQAVHAAHAEINEAGREVVGSAEAGVDAASVSEEFRADHPFLFCIKHIATNAVLFFGRCVSP
B1: the allergic reaction symptoms entry is listed as “竖毛、发抖、干呕、喷嚏、咳嗽、紫癜、呼吸困难、抽搐、休克、死亡”.
